Assay results taken from patent publication US20250109215A1 (Xencor, published 2025).
Where a chain is given by its changes, count along the chain named.

Tests used:
[1] = biological target: T1, CD3 (Homo sapiens (Human), UniProt P07766 23-126; P04234 22-105); assay: Biacore
T1 construct: not shown: The Fc carrier of the Sino Biological CD3 delta-epsilon-Fc heterodimer; copies: 1 + 1

[2] = biological target: T1, CD3; assay: Biacore; column head 'KD (nM)*', anti-CD3 scFv-Fc H1.31_L1.47
[3] = biological target: T2, human CD123 (human, UniProt P26951 19-305, limits assumed); assay: off-rate screen of Fab-His on a Biacore CD123 chip (Example 3), relative to 7G3 H1L1 Fab
T2 construct: Construct on the chip is not described; also called CD123 chip
T2 sequence (looked up): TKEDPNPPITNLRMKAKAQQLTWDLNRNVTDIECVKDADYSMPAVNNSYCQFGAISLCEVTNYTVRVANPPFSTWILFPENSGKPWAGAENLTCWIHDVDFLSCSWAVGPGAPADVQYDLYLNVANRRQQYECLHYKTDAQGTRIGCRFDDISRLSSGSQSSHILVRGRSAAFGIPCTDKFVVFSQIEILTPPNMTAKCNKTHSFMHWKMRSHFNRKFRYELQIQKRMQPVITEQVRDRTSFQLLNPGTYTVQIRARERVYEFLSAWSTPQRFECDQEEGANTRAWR

[4] = biological target: T2, human CD123; assay: Biacore, Fab-His on CD123 (Example 3; the sheet names no assay)
[5] = biological target: T3, human CD3 (human, UniProt P07766 23-126; P04234 22-105); assay: SPR; human CD3-Fc (printed 'CD388-Fc', Sino Biological) covalently bound to the chip; test article passed over at 3.125, 12.5, 50 and 200 nM
T3 construct: The legend says only human CD3
T3 sequence (P07766 23-126, chain 1 of 2): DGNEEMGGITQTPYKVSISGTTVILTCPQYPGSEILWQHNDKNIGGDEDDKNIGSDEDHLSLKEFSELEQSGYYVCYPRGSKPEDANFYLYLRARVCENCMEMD
T3 sequence (P04234 22-105, chain 2 of 2): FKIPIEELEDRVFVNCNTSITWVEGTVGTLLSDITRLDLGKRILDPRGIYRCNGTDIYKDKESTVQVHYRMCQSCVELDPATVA

[6] = biological target: T4, cyno CD3 (cynomolgus monkey, UniProt Q95LI5 22-117; Q95LI8 22-105); assay: SPR; cynomolgus monkey CD3-Fc (printed 'CD388-Fc', Sino Biological) covalently bound to the chip; test article passed over at 3.125, 12.5, 50 and 200 nM
T4 construct: The legend says only cyno CD3; also called cynomolgus monkey CD3
T4 sequence (Q95LI5 22-117, form in doubt, chain 1 of 2): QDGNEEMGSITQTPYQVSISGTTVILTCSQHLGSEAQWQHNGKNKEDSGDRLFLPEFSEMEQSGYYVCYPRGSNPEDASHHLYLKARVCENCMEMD
T4 sequence (Q95LI8 22-105, form in doubt, chain 2 of 2): as the sequence (P04234 22-105, chain 2 of 2) above, with I5V, N15K, I20V, S32T, D33N, I34N, T64A, S74N, V83L counted along it

[7] = biological target: T4, cyno CD3; assay: SPR; cynomolgus monkey CD3-Fc (printed 'CD388-Fc', Sino Biological) covalently bound to the chip; test article passed over at 31.25, 125, 500 and 2000 nM
[8] = biological target: T3, human CD3; assay: SPR; human CD3-Fc (printed 'CD388-Fc', Sino Biological) covalently bound to the chip; test article passed over at 31.25, 125, 500 and 2000 nM

T1 sequence (P07766 23-126 limits assumed, chain 1 of 2): as the sequence (P07766 23-126, chain 1 of 2) above
T1 sequence (P04234 22-105 limits assumed, chain 2 of 2): as the sequence (P04234 22-105, chain 2 of 2) above

B1: XENP14701 (bispecific antibody)
heavy: EVQLVESGGGLVQPGGSLRLSCAASGFDFSRSWMNWVRQAPGKGLEWVSEINPDSSTINYATSVKGRFTISRDNSKNTLYLQMNSLRAEDTAVYYCARYGNWFPYWGQGTLVTVSSASTKGPSVFPLAPSSKSTSGGTAALGCLVKDYFPEPVTVSWNSGALTSGVHTFPAVLQSSGLYSLSSVVTVPSSSLGTQTYICNVNHKPSDTKVDKKVEPKSCDKTHTCPPCPAPPVAGPSVFLFPPKPKDTLMISRTPEVTCVVVDVKHEDPEVKFNWYVDGVEVHNAKTKPREEEYNSTYRVVSVLTVLHQDWLNGKEYKCKVSNKALPAPIEKTISKAKGQPREPQVYTLPPSREEMTKNQVSLTCDVSGFYPSDIAVEWESDGQPENNYKTTPPVLDSDGSFFLYSKLTVDKSRWEQGDVFSCSVMHEALHNHYTQKSLSLSPGK
scFv-Fc: not shown
light: DIVMTQSPSSLSASVGDRVTITCRASQNVDTNVAWYQQKPGQSPKALIYSASYRYSGVPDRFTGSGSGTDFTLTISSLQPEDFATYFCQQYDSYPLTFGGGTKLEIKRTVAAPSVFIFPPSDEQLKSGTASVVCLLNNFYPREAKVQWKVDNALQSGNSQESVTEQDSKDSTYSLSSTLTLSKADYEKHKVYACEVTHQGLSSPVTKSFNRGEC
notes: anti-CD38 x anti-CD3; copies: 1 + 1 + 1
Fold Decrease in CD3 binding from H1.30_L1.47 [1]: 330 fold
Kd [2]: 1640 nM

B2: XENP14703 (bispecific antibody)
heavy: B1 heavy
scFv-Fc: not shown
light: B1 light with Y55K
notes: anti-CD38 x anti-CD3
Fold Decrease in CD3 binding from H1.30_L1.47 [1]: 330 fold
Kd [2]: 1640 nM

B3: 13735 7G3_H1.86_L1_Fab_His (Fab, V domains shown)
VH: QVQLVQSGAEVKKPGASVKVSCKASGYTFTDYYMKWVRQAPGQSLEWMGDIIPSNGATFYNQKFKGKATLTVDRSTSTAYMELSSLRSEDTAVYYCTRSHLLRASWFAYWGQGTLVTVSS
VL: DFVMTQSPDSLAVSLGERATINCKSSQSLLNSGNQKNYLTWYQQKPGQPPKLLIYWASTRESGVPDRFTGSGSGTDFTLTISSLQAEDVAVYYCQNDYSYPYTFGGGTKLEIKR
notes: also called XENP13735; copies: 1 + 1
Fold improvement in off-rate vs. H1L1 [3]: 4.61 fold

B4: 13965 7G3_H1.107_L1.57_Fab_His (Fab, V domains shown)
VH: B3 VH with V5Q, T97A
VL: B3 VL with S32T
notes: also called XENP13965
Ka [4]: 1.6e+10 M⁻¹
Kd [4]: 0.0624 nM
koff [4]: 3.82e-05 s⁻¹
kon [4]: 612000 M⁻¹ s⁻¹

B5: 13741 7G3_H1.92_L1_Fab_His (Fab, V domains shown)
VH: B3 VH with K65Q, K67R, A68V, L70M, R87T
VL: B3 VL
notes: also called XENP13741; copies: 1 + 1
Fold improvement in off-rate vs. H1L1 [3]: 1.89 fold

B6: 13743 7G3_H1.94_L1_Fab_His (Fab, V domains shown)
VH: B3 VH with R38K, A40S, P41H, Q43K, K65Q, K67R, A68V, L70M
VL: B3 VL
notes: also called XENP13743; copies: 1 + 1
Fold improvement in off-rate vs. H1L1 [3]: 0.65 fold

B7: 13855 7G3_H1_L1.57_Fab_His (Fab, V domains shown)
VH: B3 VH with K65Q, K67R, A68V, L70M
VL: B3 VL with S32T
notes: also called XENP13855
Fold improvement in off-rate vs. H1L1 [3]: 0.84 fold

B8: 13740 7G3_H1.91_L1_Fab_His (Fab, V domains shown)
VH: B3 VH with K65Q, K67R, A68V, L70M, E82H
VL: B3 VL
notes: also called XENP13740; copies: 1 + 1
Fold improvement in off-rate vs. H1L1 [3]: 1.04 fold

B9: 13737 7G3_H1.88_L1_Fab_His (Fab, V domains shown)
VH: B3 VH with P41H, K65Q, K67R, A68V, L70M
VL: B3 VL
notes: also called XENP13737; copies: 1 + 1
Fold improvement in off-rate vs. H1L1 [3]: 0.96 fold

B10: 13961 7G3_H1.107_L1_Fab_His (Fab, V domains shown)
VH: B3 VH with V5Q, T97A
VL: B3 VL
notes: also called XENP13961
Ka [4]: 6.79e+09 M⁻¹
Kd [4]: 0.147 nM
koff [4]: 8.84e-05 s⁻¹
kon [4]: 600000 M⁻¹ s⁻¹

B11: 13738 7G3_H1.89_L1_Fab_His (Fab, V domains shown)
VH: B3 VH with M48I, K65Q, K67R, A68V, L70M
VL: B3 VL
notes: also called XENP13738; copies: 1 + 1
Fold improvement in off-rate vs. H1L1 [3]: 1.29 fold

B12: 13963 7G3_H1.109_L1_Fab_His (Fab, V domains shown)
VH: B3 VH with V5Q, R38K, A40S, P41H, Q43K, T97A
VL: B3 VL
notes: also called XENP13963
Ka [4]: 1.35e+10 M⁻¹
Kd [4]: 0.0742 nM
koff [4]: 5.53e-05 s⁻¹
kon [4]: 745000 M⁻¹ s⁻¹

B13: XENP13677 (bispecific antibody)
HC 1 (Fab-Fc): QVQLVQSGAEVKKPGASVKVSCKASGYTFTSYNMHWVRQAPGQRLEWMGAIYPGNGATSYSQKFQGRVTITADTSASTAYMELSSLRSEDTAVYYCARSYYMGGDWYFDVWGAGTLVTVSSASTKGPSVFPLAPSSKSTSGGTAALGCLVKDYFPEPVTVSWNSGALTSGVHTFPAVLQSSGLYSLSSVVTVPSSSLGTQTYICNVNHKPSDTKVDKKVEPKSCDKTHTCPPCPAPPVAGPSVFLFPPKPKDTLMISRTPEVTCVVVDVKHEDPEVKFNWYVDGVEVHNAKTKPREEEYNSTYRVVSVLTVLHQDWLNGKEYKCKVSNKALPAPIEKTISKAKGQPREPQVYTLPPSREEMTKNQVSLTCDVSGFYPSDIAVEWESDGQPENNYKTTPPVLDSDGSFFLYSKLTVDKSRWEQGDVFSCSVMHEALHNHYTQKSLSLSPGK
HC 2 (scFv-Fc): not shown
light: QIVLTQSPSSLSASVGDRVTITCRASWSVSYIHWFQQKPGKSPKPLIYATSNLASGVPVRFSGSGSGTDYTLTISSLQPEDFATYYCQQWTHNPPTFGGGTKVEIKRTVAAPSVFIFPPSDEQLKSGTASVVCLLNNFYPREAKVQWKVDNALQSGNSQESVTEQDSKDSTYSLSSTLTLSKADYEKHKVYACEVTHQGLSSPVTKSFNRGEC
notes: anti-CD3 scFv H1.30_L1.47; also called Anti-CD20 (C2B8_H1.202_L1.113) x Anti-CD3 (H1.30_L1.47) Fab-scFv-Fc
Kd [5]: 4.9 nM
Kd [6]: 5.6 nM

B14: XENP16373 (bispecific antibody)
HC 1 (Fab-Fc): B13 HC 1 (Fab-Fc)
HC 2 (scFv-Fc): EVQLVESGGGLVQPGGSLRLSCAASGFTFSTYAMNWVRQAPGKGLEWVGRIRSKYNNYATYYADSVKGRFTISRDDSKNTLYLQMNSLRAEDTAVYYCVRHGNFGDQYVSWFDYWGQGTLVTVSSGKPGSGKPGSGKPGSGKPGSQAVVTQEPSLTVSPGGTVTLTCGSSTGAVTTSNYANWVQQKPGKSPRGLIGGTNKRAPGVPARFSGSLLGGKAALTISGAQPEDEADYYCALWYSNHWVFGGGTKLTVLEPKSSDKTHTCPPCPAPPVAGPSVFLFPPKPKDTLMISRTPEVTCVVVDVKHEDPEVKFNWYVDGVEVHNAKTKPREEQYNSTYRVVSVLTVLHQDWLNGKEYKCKVSNKALPAPIEKTISKAKGQPREPQVYTLPPSREQMTKNQVKLTCLVKGFYPSDIAVEWESNGQPENNYKTTPPVLDSDGSFFLYSKLTVDKSRWQQGNVFSCSVMHEALHNHYTQKSLSLSPGK
light: B13 light
notes: anti-CD3 scFv H1.105_L1.47; also called Anti-CD20 (C2B8_H1.202_L1.113) x Anti-CD3 (H1.105_L1.47) Fab-scFv-Fc
Kd [7]: 420 nM
Kd [8]: 4000 nM

B15: XENP14393 (bispecific antibody)
HC 1 (Fab-Fc): B13 HC 1 (Fab-Fc)
HC 2 (scFv-Fc): not shown
light: B13 light
notes: anti-CD3 scFv H1.90_L1.47; also called Anti-CD20 (C2B8_H1.202_L1.113) x Anti-CD3 (H1.90_L1.47) Fab-scFv-Fc
Kd [5]: 120 nM
Kd [6]: 120 nM

B16: XENP14390 (bispecific antibody)
HC 1 (Fab-Fc): B13 HC 1 (Fab-Fc)
HC 2 (scFv-Fc): not shown
light: B13 light
notes: anti-CD3 scFv H1.33_L1.47; also called Anti-CD20 (C2B8_H1.202_L1.113) x Anti-CD3 (H1.33_L1.47) Fab-scFv-Fc; CD3med
Kd [5]: 110 nM
Kd [7]: 160 nM
Kd [6]: 100 nM
Kd [8]: 220 nM

B17: XENP16376 (bispecific antibody)
HC 1 (Fab-Fc): B13 HC 1 (Fab-Fc)
HC 2 (scFv-Fc): not shown
light: B13 light
notes: anti-CD3 scFv H1.108_L1.47; also called Anti-CD20 (C2B8_H1.202_L1.113) x Anti-CD3 (H1.108_L1.47) Fab-scFv-Fc
Kd [7]: 860 nM
Kd [8]: 1100 nM

B18: XENP16374 (bispecific antibody)
HC 1 (Fab-Fc): B13 HC 1 (Fab-Fc)
HC 2 (scFv-Fc): not shown
light: B13 light
notes: anti-CD3 scFv H1.106_L1.47; also called Anti-CD20 (C2B8_H1.202_L1.113) x Anti-CD3 (H1.106_L1.47) Fab-scFv-Fc
Kd [7]: 1100 nM
Kd [8]: 1300 nM

B19: XENP14388 (bispecific antibody)
HC 1 (Fab-Fc): B13 HC 1 (Fab-Fc)
HC 2 (scFv-Fc): not shown
light: B13 light
notes: anti-CD3 scFv H1.31_L1.47; also called Anti-CD20 (C2B8_H1.202_L1.113) x Anti-CD3 (H1.31_L1.47) Fab-scFv-Fc; CD3low
Kd [5]: ~2000 nM
Kd [7]: 1200 nM
Kd [6]: ~1000 nM
Kd [8]: 1200 nM

B20: XENP16375 (bispecific antibody)
HC 1 (Fab-Fc): B13 HC 1 (Fab-Fc)
HC 2 (scFv-Fc): not shown
light: B13 light
notes: anti-CD3 scFv H1.107_L1.47; also called Anti-CD20 (C2B8_H1.202_L1.113) x Anti-CD3 (H1.107_L1.47) Fab-scFv-Fc
Kd [7]: 880 nM
Kd [8]: 1000 nM

B21: XENP14392 (bispecific antibody)
HC 1 (Fab-Fc): B13 HC 1 (Fab-Fc)
HC 2 (scFv-Fc): not shown
light: B13 light
notes: anti-CD3 scFv H1.89_L1.47; also called Anti-CD20 (C2B8_H1.202_L1.113) x Anti-CD3 (H1.89_L1.47) Fab-scFv-Fc
Kd [5]: 120 nM
Kd [6]: 110 nM

B22: XENP14389 (bispecific antibody)
HC 1 (Fab-Fc): B13 HC 1 (Fab-Fc)
HC 2 (scFv-Fc): not shown
light: B13 light
notes: anti-CD3 scFv H1.32_L1.47; also called Anti-CD20 (C2B8_H1.202_L1.113) x Anti-CD3 (H1.32_L1.47) Fab-scFv-Fc
Kd [5]: 44 nM
Kd [6]: 45 nM
